Experimental data from PMC5444442, “Flagellin peptide flg22 gains access to long-distance trafficking in Arabidopsis via its receptor, FLS2” (Journal of Experimental Botany, 2017).
Peptide text beside a SMILES is read from it. * marks the point of attachment. 5TAMRA = CN(C)c1ccc2c(c1)Oc1cc(N(C)C)ccc1C21OC(=O)c2cc(C(=O)*)ccc21; 5FAM = O=C1OC2(c3ccc(O)cc3Oc3cc(O)ccc32)c2ccc(C(=O)*)cc21; Cbz = O=C(OCc1ccccc1)*

How the values were obtained:
[1] = tested on: detached Arabidopsis leaf; test: Movement across a leaf blade; conditions: 1 h, epifluorescence
Method: A 5 μl drop of water solution of 10 μM FAM–flg22 or FAM–scrambled peptide was placed on the abaxial side of a detached Arabidopsis leaf in a humid chamber. […] Excess peptide was removed after 0.5 h, leaf surface was washed with water and epifluorescence images of the adaxial side were taken during the next 30 min (0.5–1 h after treatment).
The amount of peptide in plant cells was measured as total fluorescence per view field (integrated density) as in [Martins et al. (2015)], and was quantified with ImageJ in each channel in confocal and epifluorescence images. To allow comparison between experiments, fluorescence was calculated as a percentage of the signal in Col treated with TAMRA–flg22 or FAM–flg22. ^125I radioactivity in local and distal tissues was quantified from autoradiographs using a Cyclone Phosphorimager (Perkin Elmer) or in a scintillation counter (Packard Quantum Cobra D5002) and shown as percentage of total radioactivity in a plant. [^14C]sucrose radioactivity was quantified in a scintillation counter. Data from multiple experiments were analysed together using Prism software (GraphPad) (one-way ANOVA followed by Tukey’s test, or the t-test).

[2] = tested on: Arabidopsis plants; test: Long-distance transport to distal tissues after infiltration of fluorescent peptide; assay type: in vivo, Arabidopsis thaliana; conditions: for detection within cells in distal part of infiltrated leaf: 10 μM infiltrated, 2 h, confocal microscopy
Method: A 5–10 μM water solution of FAM–flg22 was pressure infiltrated with a 1 ml blunt syringe into a part or all of one leaf of 4-week-old soil-grown plants and distal tissues were examined by epifluorescence and confocal microscopy after 2 and 16 h, respectively. FAM–Y-flg22 was used in some experiments with similar results.
(§1) [^14C]sucrose radioactivity was quantified in a scintillation counter.

[3] = tested on: Arabidopsis leaf discs; test: Subcellular localization, uptake and accumulation of flg22 in leaf discs; assay type: cell-based, Arabidopsis thaliana; conditions: for number of foci overlapping with FM4-64 / total number of green (Ff22) fluorescent foci: 18 picture areas (20 μm × 20 μm); for non-specific uptake in presence of active flg22: Col leaf discs floated overnight on 2 μM FAM–scrambled peptide or 2 μM fluorescein mixed with 1 μM TAMRA–flg22 or 2 μM flg22, n≥8; for initial (up to 1.5 h) uptake/binding: leaf discs floated on 5 μM peptide, confocal fluorescence
Method: Leaf discs were floated (abaxial side down) on 1–5 μM TAMRA–flg22 or 5–10 μM FAM–flg22 solution (in water) at room temperature for the indicated time (lower concentrations were used for overnight treatments). Inhibitors that affect endocytosis, MG132 (Sigma-Aldrich, 50 μM) or 2,3-butanedione monoxime (BDM; Sigma-Aldrich, 50 mM) were added at the same time as the peptides. FM4-64 (Invitrogen, 6–8 μM) or 2′,7′-bis-(2-carboxyethyl)-5-(and-6)-carboxyfluorescein (BCECF)-AM (cleaved by an endogenous plant esterase to BCECF, Invitrogen, 20–40 μM) mixed with peptide solution was vacuum infiltrated for 2 min into leaf discs ([Kang et al., 2014]) prior to incubation (floating on peptide/dye solution) for the indicated time. In some experiments FAM–Y-flg22 was used with results similar to FAM–flg22.
For experiments with mixed peptides, leaf discs were floated for the indicated time on 2 μM FAM–flg22, FAM–scrambled peptide or fluorescein mixed with 1 μM TAMRA–flg22. In all experiments, leaf discs were washed after treatment by gently shaking for several minutes in water and the abaxial side was imaged by confocal or epifluorescence microscopy (see ‘Microscopy’). Fluorescence intensity profiles were generated with ImageJ, as in [Spallek et al., (2013)] and [Bozkurt et al. (2015)] (see ‘Data analysis’).
Confocal images were obtained using a Zeiss LSM710 laser-scanning confocal microscope (Zeiss, Germany) as described in [Kang et al. (2014)]. Fluorescence was visualized as follows: GFP/FAM/fluorescein/BCECF excitation (ex) 488 nm/emission (em) 495–545 nm; TAMRA ex 561 nm/em 566–620 nm; FM4-64: ex 561 nm/em 686–758 nm. Green and red fluorescence was acquired for the same field using a sequential acquisition mode.
Fluorescence intensity profiles were generated with ImageJ (http://rsb.info.nih.gov/ij, last accessed 6 April 2017) using RGB Profiler and Color Profiler. Fluorescent puncta were manually counted in 20 μm × 20 μm confocal image areas as in [Irani et al. (2012)] and [Chaparro-Garcia et al., (2015)] and shown as a fraction ([Irani et al., 2012]; [Choi et al., 2013]). […]

[4] = tested on: Arabidopsis plants; test: Long-distance transport after surface application of fluorescent peptide; assay type: in vivo, Arabidopsis thaliana; conditions: 1 d
Method: We applied 10–20 μl of 5 μM TAMRA–flg22 (without or with inhibitors: 50 μM MG132 or 50 mM BDM) to a filter paper disc placed on the adaxial side of one leaf of in vitro-grown Arabidopsis plants and distal tissues were imaged by confocal microscopy after 1 d. For experiments with mixed peptides, 5 μM TAMRA–flg22 + 10 μM FAM–scrambled peptides were used.
as §1

[5] = tested on: Arabidopsis plants; test: Long-distance transport after surface application of radiolabeled peptide; assay type: in vivo, Arabidopsis thaliana; conditions: control; 1 μl droplet of Na125I (1 × 10^6 cpm) on abaxial side of one leaf; 3 h; five plants, three experiments, P=0.7
Method: We applied 0.5–1 µM (specific activity 17 µCi µg^–1) ^125I-Y-flg22 or ^125I-Y-scrambled peptide in 10 mM MES pH 5.7 with 0.01% Tween-20 as a 1 µl droplet to the abaxial side of one mature leaf of 4-week-old soil-grown Arabidopsis plants and incubated for 3 h. For the control, 1 µl of 1.8 µM Na^125I (2.2 µCi µg^–1) in 5 mM NaOH–0.5 mM NaHSO2 (to prevent volatilization) with 0.005% Tween-20 was applied in the same way. Whole plants were sealed in plastic (Pinnacle Cover-All, Total Care), additionally contained in a plastic bag, and exposed for 5 d to phosphor screens for autoradiography.
as §1

[6] = Col leaf discs, 5–10 μM peptide with FM4-64 (6–8 μM), 1–2 h, confocal
[7] = fls2 leaf discs, 5–10 μM peptide with FM4-64, 1–2 h, confocal
[8] = Ws (lacks FLS2) leaf discs floated on 2 μM peptide 1–2 h, 16 picture areas (20 μm × 20 μm), confocal
[9] = Ws/FLS2–GFP leaf discs floated on 2 μM peptide 1–2 h, 16 picture areas (20 μm × 20 μm), confocal

SMILES: CC[C@H](C)[C@H](NC(=O)[C@H](CCC(N)=O)NC(=O)[C@H](CC(C)C)NC(=O)CNC(=O)[C@H](C)NC(=O)[C@H](C)NC(=O)[C@H](CC(=O)O)NC(=O)[C@H](CC(=O)O)NC(=O)[C@H](CCCCN)NC(=O)[C@H](C)NC(=O)[C@H](CO)NC(=O)[C@H](CC(N)=O)NC(=O)[C@@H](NC(=O)[C@H](CCCNC(=N)N)NC(=O)[C@H](CO)NC(=O)CNC(=O)[C@@H](NC(=O)[C@H](CO)NC(=O)[C@H](CC(C)C)NC(=O)[C@H](CCCNC(=N)N)NC(=O)[C@H](CCC(N)=O)NC(=O)c1ccc2c(c1)C(=O)OC21c2ccc(O)cc2Oc2cc(O)ccc21)[C@@H](C)O)[C@@H](C)CC)C(=O)N[C@@H](C)C(=O)O [FAM–flg22] (5FAM-QRLSTGSRINSAKDDAAGLQIA-OH)
- detection on adaxial side of leaf after application to abaxial side ([1]; Col detached leaf, 5 μl drop of 10 μM peptide, three experiments, n≥5): detected
- mobility across a leaf blade ([1]; fls2 and bak1 mutants, 10 μM peptide drop): reduced
- detection within cells in distal part of infiltrated leaf ([2]; Col): present within vascular cells
- detection in distal orthostichous leaves ([2]; Col, 5–10 μM infiltrated into part of one leaf of soil-grown plants, 16 h, epifluorescence): detected
- detection within cells in distal part of infiltrated leaf ([2]; fls2): not detected within cells
- detection in distal leaves ([2]; fls2, 5–10 μM infiltrated into one leaf, 16 h, epifluorescence): not observed
- number of foci overlapping with FM4-64 [3, 6]: 212
- total number of green (Ff22) fluorescent foci [3, 6]: 217
- co-localization with endocytic dye FM4-64 ([3]; Col leaves, 5–10 μM peptide, 1–2 h incubation, confocal): co-localized with a subset of vesicles and MVBs
- number of foci overlapping with FM4-64 [3, 7]: 2
- total number of green (Ff22) fluorescent foci [3, 7]: 10
- signal in cells ([3]; fls2 mutant, 5–10 μM peptide, 1–2 h incubation, confocal): not visible

SMILES: CC[C@H](C)[C@H](NC(=O)CNC(=O)c1ccc2c(c1)C(=O)OC21c2ccc(O)cc2Oc2cc(O)ccc21)C(=O)N[C@H](C(=O)N[C@@H](C)C(=O)N[C@@H](CO)C(=O)N[C@@H](CCCCN)C(=O)N[C@@H](C)C(=O)N[C@@H](CC(C)C)C(=O)NCC(=O)N[C@@H](C)C(=O)N[C@@H](CC(=O)O)C(=O)N[C@@H](CC(C)C)C(=O)N[C@@H](CCCNC(=N)N)C(=O)N[C@@H](CCCNC(=N)N)C(=O)N[C@H](C(=O)N[C@@H](CC(N)=O)C(=O)N[C@@H](CCC(N)=O)C(=O)N[C@@H](CO)C(=O)N[C@@H](C)C(=O)N[C@@H](CO)C(=O)N[C@@H](CCC(N)=O)C(=O)N[C@@H](CC(=O)O)C(=O)O)[C@@H](C)CC)[C@@H](C)O [FAM–scrambled peptide] (5FAM-GITASKALGADLRRINQSASQD-OH)
- detection within cells in distal part of infiltrated leaf ([2]; Col): not detected within cells
- non-specific uptake in presence of active flg22 ([3]; confocal): not observed

SMILES: CC(C)C[C@@H](C=O)NC(=O)[C@H](CC(C)C)NC(=O)[C@H](CC(C)C)NC(=O)OCc1ccccc1 [MG132, reference compound] (Cbz-Leu-Leu-Leu-aldehyde)
- effect of inhibitor on long-distance movement of TAMRA–flg22 ([4]; Col, 5 μM TAMRA–flg22 with 50 μM MG132 or 50 mM BDM on filter paper disc): prevented
- effect of inhibitor on initial binding/uptake of TAMRA–flg22 ([3]; Col leaf discs, 5 μM TAMRA–flg22 with 50 μM MG132 or 50 mM BDM added simultaneously, 1–2 h): did not prevent initial peptide binding/uptake
- effect of inhibitor on overnight accumulation of TAMRA–flg22 in vacuoles ([3]; Col leaf discs, 1–2 μM TAMRA–flg22 with 50 μM MG132 or 50 mM BDM, overnight): did not accumulate in vacuoles

SMILES: [125I-].[Na+] [Na^125I]
- movement to distal leaves, Col versus fls2 [5]: the same in Col and fls2

SMILES: CC[C@H](C)[C@H](NC(=O)[C@H](CCC(N)=O)NC(=O)[C@H](CC(C)C)NC(=O)CNC(=O)[C@H](C)NC(=O)[C@H](C)NC(=O)[C@H](CC(=O)O)NC(=O)[C@H](CC(=O)O)NC(=O)[C@H](CCCCN)NC(=O)[C@H](C)NC(=O)[C@H](CO)NC(=O)[C@H](CC(N)=O)NC(=O)[C@@H](NC(=O)[C@H](CCCNC(=N)N)NC(=O)[C@H](CO)NC(=O)CNC(=O)[C@@H](NC(=O)[C@H](CO)NC(=O)[C@H](CC(C)C)NC(=O)[C@H](CCCNC(=N)N)NC(=O)[C@H](CCC(N)=O)NC(=O)c1ccc2c(c1)C(=O)OC21c2ccc(N(C)C)cc2Oc2cc(N(C)C)ccc21)[C@@H](C)O)[C@@H](C)CC)C(=O)N[C@@H](C)C(=O)O [TAMRA–flg22] (5TAMRA-QRLSTGSRINSAKDDAAGLQIA-OH)
- detection in local (treated) tissue ([4]; Col, 5 μM on filter paper disc on adaxial side of one leaf of in vitro-grown plants, confocal): detected preferentially in the vascular region
- detection in distal leaves and flowers ([4]; Col, 5 μM on filter paper disc on one leaf of in vitro-grown plants, confocal): detected
- movement to distal organs from mixture of peptides ([4]; WT Col, 5 μM TAMRA–flg22 + 10 μM FAM–scrambled peptide on filter paper disc, confocal, n=6): moved, to a significant extent
- overnight accumulation in plant cells ([3]; Col leaf discs, 1 μM peptide with vacuolar dye BCECF (20 μM), overnight, confocal): accumulated in central vacuoles
- number of overlapping red and green foci [3, 8]: 0
- total number of red (Tf22) fluorescent foci [3, 8]: 5
- number of foci overlapping with FLS2–GFP [3, 9]: 143
- total number of red (Tf22) fluorescent foci [3, 9]: 161
- internalization into vesicles ([3]; Ws/FLS2–GFP leaf discs, 2 μM peptide, 1–2 h, confocal): found together in vesicles
- initial (up to 1.5 h) uptake/binding ([3]; bak1 versus Col): not highly affected
- overnight accumulation in plant cells ([3]; fls2 and bak1 versus Col, leaf discs floated on 1–2 μM peptide overnight, confocal, P<0.0002, n≥7): inhibited
- initial (up to 1.5 h) uptake/binding ([3]; fls2 versus Col, P<0.05, n≥6): reduced
- fluorescence signal inside cells ([3]; non-transgenic wild-type Ws control or Col fls2, 1–2 h, confocal): No fluorescence signal was observed inside the cells

SMILES: O=C1OC2(c3ccc(O)cc3Oc3cc(O)ccc32)c2ccccc21 [fluorescein, reference compound]
- non-specific uptake in presence of active flg22 ([3]; confocal): did not induce uptake
